Source: patent US20240417475A1 (AFFIMED, published 2024)

B1: scFv-IgAb_444 (RSV×CD16A) (bispecific antibody)
chain 1: QVTLRESGPALVKPTQTLTLTCTFSGFSLSTAGMSVGWIRQPPGKALEWLADIWWDDKKHYNPSLKDRLTISKDTSKNQVVLKVTNMDPADTATYYCARDMIFNFYFDVWGQGTTVTVSSASTKGPSVFPLAPSSKSTSGGTAALGCLVKDYFPEPVTVSWNSGALTSGVHTFPAVLQSSGLYSLSSVVTVPSSSLGTQTYICNVNHKPSNTKVDKKVEPKSCDKTHTCPPCPAPEFEGGPSVFLFPPKPKDTLMISRTPEVTCVVVAVSHEDPEVKFNWYVDGVEVHNAKTKPREEQYNSTYRVVSVLTVLHQDWLNGKEYKCKVSNKALPAPIEKTISKAKGQPREPQVYTLPPSREEMTKNQVSLTCLVKGFYPSDIAVEWESNGQPENNYKTTPPVLDSDGSFFLYSKLTVDKSRWQQGNVFSCSVMHEALHNHYTQKSLSLSPGGGGGSGGGGSGGGGSGGGGSGGGGSGGGGSSYELTQPLSVSVALGQTARITCGGNNIGSKSVHWYQQKPGQAPVLVIYQDKKRPSGIPERFSGSNSGNTATLTISRAQAGDEADYYCQVWDDYIVLFGCGTKLTVLGGSGGSGGSGGSGGSGGSGGSQVQLVQSGAEVKKPGASVKVSCKASGYTFTNYYMQWVRQAPGQCLEWMGIINPSGGVTSYAQKFQGRVTMTRDTSTSTVYMELSSLRSEDTAVYYCARGSAYYYDFADYWGQGTLVTVSSG
chain 2: DIQMTQSPSTLSASVGDRVTITCSASSRVGYMHWYQQKPGKAPKLLIYDTSKLASGVPSRFSGSGSGTEFTLTISSLQPDDFATYYCFQGSGYPFTFGGGTKVEIKRTVAAPSVFIFPPSDEQLKSGTASVVCLLNNFYPREAKVQWKVDNALQSGNSQESVTEQDSKDSTYSLSSTLTLSKADYEKHKVYACEVTHQGLSSPVTKSFNRGEC
notes: also called RSV/CD16A scFv-IgAb_444; RSV(NIST)×CD16A
B2: scFv-IgAb_264 (CD123-2×CD16a2) (bispecific antibody)
chain 1: QVQLVQSGAEVKKPGASVKMSCKASGYTFTDYYMKWVKQAPGQGLEWIGDIIPSNGATFYNQKFKGKATLTVDRSISTAYMHLNRLRSDDTAVYYCTRSHLLRASWFAYWGQGTLVTVSSASTKGPSVFPLAPSSKSTSGGTAALGCLVKDYFPEPVTVSWNSGALTSGVHTFPAVLQSSGLYSLSSVVTVPSSSLGTQTYICNVNHKPSNTKVDKKVEPKSCDKTHTCPPCPAPEFEGGPSVFLFPPKPKDTLMISRTPEVTCVVVAVSHEDPEVKFNWYVDGVEVHNAKTKPREEQYNSTYRVVSVLTVLHQDWLNGKEYKCKVSNKALPAPIEKTISKAKGQPREPQVYTLPPSREEMTKNQVSLTCLVKGFYPSDIAVEWESNGQPENNYKTTPPVLDSDGSFFLYSKLTVDKSRWQQGNVFSCSVMHEALHNHYTQKSLSLSPGGGGGSGGGGSGGGGSGGGGSGGGGSGGGGSSYELTQPLSVSVALGQTARITCGGHNIGSKNVHWYQQKPGQAPVLVIYQDNKRPSGIPERFSGSNSGNTATLTISRAQAGDEADYYCQVWDNYNVLFGCGTKLTVLGGSGGSGGSGGSGGSGGSGGSQVQLVQSGAEVKKPGASVKVSCKASGYTFTSYYMHWVRQAPGQCLEWMGAIEPRYGSTSYAQKFQGRVTMTRDTSTSTVYMELSSLRSEDTAVYYCARGSAYYYDFADYWGQGTLVTVSS
chain 2: not shown
notes: also called scFv-IgAb_264 (CD16a1×CD123-2); CD123-1×CD16a2 scFv-IgAb_264

How the values were obtained:
[1] = molecular target: T1, human FOLR1 endogenously expressed on tumor cell lines (human, UniProt P15328 25-234); assay: cell-based or functional assay
T1 sequence (P15328 25-234): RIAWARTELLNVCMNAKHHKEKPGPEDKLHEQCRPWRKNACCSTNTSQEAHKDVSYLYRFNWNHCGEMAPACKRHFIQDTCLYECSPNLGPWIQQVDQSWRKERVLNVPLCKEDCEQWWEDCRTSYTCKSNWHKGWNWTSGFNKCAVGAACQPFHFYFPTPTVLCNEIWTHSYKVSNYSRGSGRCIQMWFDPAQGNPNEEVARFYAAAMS

[2] = molecular target: T2, CD16A endogenously expressed on primary human NK cells (human, UniProt P08637 17-254); assay: flow cytometry on primary human NK cells, with against without 10 mg/mL polyclonal human IgG
T2 sequence (P08637 17-254 limits assumed): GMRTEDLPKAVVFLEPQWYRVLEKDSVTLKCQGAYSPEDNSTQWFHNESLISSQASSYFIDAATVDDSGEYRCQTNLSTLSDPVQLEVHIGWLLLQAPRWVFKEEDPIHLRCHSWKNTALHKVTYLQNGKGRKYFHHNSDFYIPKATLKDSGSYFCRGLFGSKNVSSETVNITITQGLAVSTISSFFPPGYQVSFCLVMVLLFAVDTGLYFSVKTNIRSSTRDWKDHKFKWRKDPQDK
Description: (§1) 4° C., and resuspended in 50 μL/well of diluted antibody constructs. […] After 40-50 minutes' incubation at 37° C., cells were washed 3-times with ice-cold FACS buffer. […] After the final incubation step, cells were washed 2-times with ice-cold FACS buffer, and the cell pellet was resuspended in 50 μL FACS buffer. Fluorescence intensity of >1×10⁴ viable cells was analyzed by flow cytometry and the median fluorescence intensity (MFI) was determined for each sample.
(§2) Equilibrium dissociation constants (KD) of antibody binding were calculated by plotting MFI values and fitting a non-linear regression model for one-site binding to hyperbolic dose-response curves using GraphPad Prism.

[3] = molecular target: T2, CD16A endogenously expressed on primary …; assay: flow cytometry on primary human NK cells, biotinylated antibody, 37 C, without IgG, mean of 4
Description: as §1, §2

[4] = molecular target: T1, human FOLR1 endogenously expressed on …; assay: flow cytometry on IGROV-1 cells (FOLR1 high) at 37 °C, FITC anti-human IgG detection
Description: Cells were collected and centrifuged at 400×g, 5 min, 4° C. Cell pellets were resuspended in FACS buffer (PBS (Invitrogen, cat.: 392-0434) containing 2% h.i. FCS (Invitrogen, cat.: 10500-064), and 0.1% sodium azide (Sigma, cat.: S8032)) at 1-5×10⁶ cells/mL. 100 μL/well of the cell suspension were transferred into U-shaped, 96-well micro plates (0.1-0.5×10⁶ cells per well), cells were pelleted at 400×g, 5 min, 4° C., and resuspended in 100 μL/well of serial dilutions of the indicated antibodies in FACS buffer. After 40-50 min incubation at 37° C., cells were washed 3-times with ice-cold FACS buffer. […] After the final incubation step, cells were washed 2-times with ice-cold FACS buffer, and the cell pellet was resuspended in 100 μL FACS buffer. Fluorescence intensities of >1×10⁴ viable cells were analyzed by flow cytometry and the median fluorescence intensity (MFI) was determined for each sample.

[5] = molecular target: T2, CD16A endogenously expressed on primary …; assay: flow cytometry on primary human NK cells, biotinylated antibody, 37 C, with 10 mg/mL polyclonal human IgG as competitor, mean of 4
Description: as §1, §2

[6] = molecular target: T2, CD16A endogenously expressed on primary …; assay: flow cytometry on primary human NK cells at 37 °C, biotinylated antibody, streptavidin-FITC, without polyclonal human IgG
Description: (§3) Frozen NK cells were thawed, and viability was determined with trypan blue (Sigma-Aldrich, cat.: T8154). Cells have been centrifuged at 400×g, 5 min, 4° C. Cell pellets were resuspended in FACS buffer PBS (Invitrogen, cat.: 392-0434) containing 2% h.i. FCS (Invitrogen, cat.: 10500-064), and 0.1% sodium azide (Sigma, cat.: S8032) at 2×10⁶ cells/mL. 100 μL/well of the cell suspension were transferred into U-shaped 96 well plates, cells were pelleted at 400×g, 5 min. 4° C., and resuspended in 50 μL/well of diluted antibody constructs. […] After 40-50 minutes' incubation at 37° C., cells were washed 3-times with ice-cold FACS buffer. […] After the final incubation step, cells were washed 2-times with ice-cold FACS buffer, and the cell pellet was resuspended in 50 μL FACS buffer. Fluorescence intensity of >1×10⁴ viable cells was analyzed by flow cytometry and the median fluorescence intensity (MFI) was determined for each sample.

[7] = molecular target: T2, CD16A endogenously expressed on primary …; assay: flow cytometry on primary human NK cells at 37 °C, biotinylated antibody, streptavidin-FITC, in the presence of 10 mg/mL polyclonal human IgG (competitor)
Description: as §3

[8] = molecular target: T3, recombinant human CD16A^158V, biotinylated, mFc.silenced/Avi-tagged (human, UniProt P08637 17-208, biotinylated (Avi-tag)); assay: SPR (Biacore T200), 37 °C, multivalent multi-cycle kinetics, biotin-captured antigen as ligand, construct as analyte, 1:1 binding model, n=3
T3 construct: also called CD16^158V
T3 sequence (P08637 17-208 F176V limits assumed): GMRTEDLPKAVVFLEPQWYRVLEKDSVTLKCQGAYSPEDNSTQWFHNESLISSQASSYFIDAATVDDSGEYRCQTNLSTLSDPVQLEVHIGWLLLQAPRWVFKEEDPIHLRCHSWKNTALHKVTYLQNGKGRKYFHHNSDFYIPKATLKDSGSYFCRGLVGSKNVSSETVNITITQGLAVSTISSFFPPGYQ
Description: (§4) For multivalent interaction analysis, biotinylated-mFc.silenced/Avi-tagged antigens were captured (FC2, FC4) to a density of 120-200RU, before CD123×CD16A ICE were injected (concentration: 0-60 nM) for 240s at a flow rate of 40 μL/min and complex was left to dissociate for 300s at the same flow rate.
(§5) After each cycle, chip surfaces were regenerated with 6M guanidine-HCl, 0.25M NaOH and reloaded with Biotin Capture reagent. Interaction kinetics were determined by fitting data from multi-cycle kinetics experiments to a simple 1:1 interaction model using the local data analysis option (Rmax and RI) available within Biacore T200 Evaluation Software (v3.1). Referencing was done against a flow cell without captured ligand (Fc2-Fc1, Fc4-Fc3).

[9] = molecular target: recombinant human CD16A^158F, biotinylated, mFc.silenced/Avi-tagged (human, UniProt P08637 17-208, biotinylated (Avi-tag)); assay: as above
Sequence of recombinant human CD16A^158F, biotinylated, mFc.silenced/Avi-tagged (P08637 17-208): as the sequence (P08637 17-208 F176V limits assumed) above, with V160F counted along it
Description: as §4, §5

[10] = molecular target: recombinant cynomolgus CD16, biotinylated, mFc.silenced/Avi-tagged (cynomolgus, UniProt Q8SPW2 17-208, biotinylated (Avi-tag)); assay: as above
Sequence of recombinant cynomolgus CD16, biotinylated, mFc.silenced/Avi-tagged (Q8SPW2 17-208): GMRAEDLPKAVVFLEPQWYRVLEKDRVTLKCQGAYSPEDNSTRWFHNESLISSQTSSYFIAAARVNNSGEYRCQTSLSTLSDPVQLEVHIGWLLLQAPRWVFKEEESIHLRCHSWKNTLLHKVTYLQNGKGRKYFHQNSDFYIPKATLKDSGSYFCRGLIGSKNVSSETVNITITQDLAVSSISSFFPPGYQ
Description: as §4, §5

Row | Binder | Phagocytosis [%], 4 h ADCP, DK-MG cells [1] | Phagocytosis [%], 4 h ADCP, HCC-78 cells [1] | Phagocytosis [%], 4 h ADCP, HeLa cells [1] | fold loss in KD induced by IgG [2] | Kd [3] | binding result [4] | Kd [5] | EC50 (read off the curve) [6] | EC50 (read off the curve) [7] | Kd [8] | koff [8] | kon [8] | Kd [9] | koff [9] | kon [9] | Kd [10] | koff [10] | kon [10]
1 | B1 | 0% | 0% | 0% | 5 fold | 3.8 nM | no binding (tested: about 500 nM) | 19.9 nM | ~4 nM | 10 to 20 nM | – | – | – | – | – | – | – | – | –
2 | B2 | – | – | – | – | – | – | – | – | – | 0.43 nM | 0.0027 s⁻¹ | 6.3e+06 M⁻¹ s⁻¹ | 0.567 nM | 0.0036 s⁻¹ | 6.4e+06 M⁻¹ s⁻¹ | 2.4 nM | 0.013 s⁻¹ | 5.2e+06 M⁻¹ s⁻¹
